Measured values reported in article PMC6816377 (mAbs, 2019).
Numbering of substitutions follows the chain as printed.

B1: HEL23 (antibody, V domains shown)
VH: EVQLQQSGAELMKPGASVKISCKATGYTFSNYWIGWVKQRPGHGLEWIGEILPGSGSTNYNEKFKGKATFTADTSSNTAYMQLSSLTSEDSAVYYCARDSSGGFAYWGQGTLVTVSA
VL: DIVLTQSPAIMSASLGERVTMTCTASSNVSSSYLHWYQQKPGSSPKLWIYSTSNLASGVPARFSGSGSGTSYSLTISSMEAEDAATYYCHQYHRSPPTFGAGTKLEIK
B2: HEL23 variant 3 (antibody, V domains shown)
VH: B1 VH with C22S, S84N
VL: B1 VL
B3: HEL23 variant 4 (antibody, V domains shown)
VH: B1 VH with L4V, M12K, G54S, G56S, T111S
VL: B1 VL
B4: HEL23 variant 5 (antibody, V domains shown)
VH: B1 VH with G54S, T78I
VL: B1 VL
B5: HEL23 variant 1 (antibody, V domains shown)
VH: B1 VH with Q5R, S91G, A105V, Q109R
VL: B1 VL

Experiments:
hen egg lysozyme [1] = biological target: T1, hen egg lysozyme (Gallus gallus (hen egg white), UniProt P00698); assay: flow cytometry on cells
T1 sequence (P00698 19-147): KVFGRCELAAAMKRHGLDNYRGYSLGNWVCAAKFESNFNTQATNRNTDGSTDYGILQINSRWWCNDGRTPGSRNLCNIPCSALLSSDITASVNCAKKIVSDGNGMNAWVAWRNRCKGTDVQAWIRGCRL

hen egg lysozyme [2] = biological target: T1, hen egg lysozyme; assay: ELISA
hen egg lysozyme [3] = biological target: T1, hen egg lysozyme; assay: BLI

Binder	binding result (hen egg lysozyme [2])	other results
B1		binding result (hen egg lysozyme [1]): binds
B2	binds	
B3	binds	
B4	binds	
B5		binding result (hen egg lysozyme [3]): binds
